Measurements reported in patent publication US9777044B2, “GLUT-1 as a receptor for HTLV envelopes and its uses” (CENTRE NATIONAL DE LA RECHERCHE SCIENTIFIQUE (CNRS), priority 2003, dated 2017).

Assays:
293T cells [1] = test: Hexose uptake assay: 2-deoxyglucose; type: cell-based, human; details: transfected 293T cells vs control cells
Method: (§1) Assay of hexose uptake. 2-deoxy-D[1-^3H]glucose, D[U-^14C]fructose and 3-O-[^14C]methyl-D-glucose were obtained from Amersham. Hexose uptake assay were adapted from Harrison et al. 1991). After transfection, approximately 250,000 were seeded/well in 24-well plates. […] Uptake was initiated by adding labeled hexoses to a final concentration of 0.1 mM (2 μCi/ml for 2-2-deoxy-D[1-^3H]glucose and 0.2 μCi/ml for D[U-^14C]fructose and 3-O-[^14C]methyl-D-glucose) and cells were incubated for 5′ additional minutes. Cells were then resuspended in 500 μl cold serum-free glucose-free DMEM, wash one time in serum-free glucose-free DMEM, and solubilized in 400 μl of 0.1% SDS. 3 μl was used for Bradford normalization, while the rest was used for detection of either ^3H or ^14C by liquid scintillation in a Beckman counter.

293T cells [2] = test: Hexose uptake assay: fructose; type: cell-based, human; details: transfected 293T cells
Method: as §1

[3] = tested on: 293T cells and Jurkat T cells; test: RBD binding after overnight culture in the absence of glucose; design: species or system human; details: both 293T cells and Jurkat T cells
Method: Cell culture. 293T human embryonic kidney and HeLa cervical carcinoma cells were grown in Dulbecco's modified Eagle medium (DMEM) with high glucose (4.5 g/l) and Jurkat T-cells were grown in RPMI supplemented with 10% fetal bovine serum (FBS) at 37° C. in a 5% CO2-95% air atmosphere. For glucose starvation experiments, cells were grown in either glucose-free DMEM (Life Technologies) or glucose-free RPMI—(Dutscher) with 10% dialyzed FBS (Life Technologies) and glucose (1 g/l) was supplemented when indicated.
Binding assays. Binding assays were carried out as previously described [Manel, 2003]. Briefly, 5×10^5 cells (293T, HeLa, Jurkat or freshly isolated human erythrocytes) were incubated with 500 μl of H1RBD, H2RBD or ARBD supernatants for 30 min at 37° C., washed with PBA (1% BSA, 0.1% sodium azide in PBS), and incubated with a sheep anti-rabbit IgG antibody conjugated to fluorescein isothiocyanate (Sigma). […] Binding was analyzed on a FACSCalibur (Becton Dickinson) and data analysis was performed using CellQuest (Becton Dickinson) and WinMDI (Scripps) softwares.

murine erythrocytes = test: RBD binding on murine erythrocytes
PiT2 = test: RBD binding to cells overexpressing PiT2
GLUT-3 = target: T1, GLUT-3 (Homo sapiens, UniProt P11169); test: RBD binding to cells overexpressing GLUT-3
T1 construct: factor Xa cleavage site + 2x HA + His (pCHIX cassette) (C); expressed in transfected cells; host or cells: 293T cells
T1 sequence (P11169 1-496): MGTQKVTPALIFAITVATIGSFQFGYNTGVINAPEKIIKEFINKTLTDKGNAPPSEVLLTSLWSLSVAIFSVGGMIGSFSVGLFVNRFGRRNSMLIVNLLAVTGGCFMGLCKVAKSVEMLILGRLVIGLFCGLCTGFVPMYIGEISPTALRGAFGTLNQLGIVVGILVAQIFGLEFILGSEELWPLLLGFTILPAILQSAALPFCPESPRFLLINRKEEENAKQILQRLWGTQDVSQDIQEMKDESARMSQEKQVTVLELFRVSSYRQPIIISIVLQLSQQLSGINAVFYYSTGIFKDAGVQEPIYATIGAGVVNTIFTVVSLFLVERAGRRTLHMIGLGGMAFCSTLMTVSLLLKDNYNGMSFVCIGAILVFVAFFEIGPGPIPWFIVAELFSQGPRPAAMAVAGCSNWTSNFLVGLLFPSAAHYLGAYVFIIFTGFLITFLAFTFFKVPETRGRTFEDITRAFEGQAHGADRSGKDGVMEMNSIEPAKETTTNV
Source text: In order to directly test the ability of HTLV envelopes to bind GLUT-1, we derived a tagged GLUT-1 expression vector and overexpressed this protein in HeLa cells. […] GLUT-3 is the closest isoform to GLUT-1, and transports glucose with kinetics similar to that of GLUT-1. Thus, we derived a tagged GLUT-3 expression vector. […] To determine if GLUT-1 transfected cells were directly responsible for the observed increased in H1RBD binding, we derived fluorescent tagged GLUT-1 and GLUT-3 to uniquevocally identity GLUT-overexpressing cells in the course of our FACS analysis. […] Consequently, we tested if HTLV glycoproteins directly interact with GLUT-1 proteins. To this end, we evaluated the ability of H1RBD to immunoprecipitate GLUT-1. […] Therefore, the GLUT-1 glucose transporter is an essential component of the HTLV envelope receptor.
Expression vectors. Full length envelope expression vectors for HTLV-1 (pCEL/2[Denesvre, 1995]) and Friend ecotropic MLV (pCEL/F [Denesvre, 1995]), have been previously described. For the HTLV-2 envelope, a fragment from pHTE2 [Rosenberg, 1998] encompassing the tax, rex and env genes and the 3′ LTR was inserted in the pCSI [Battini, 1999] vector (pCSIX.H2). […]
Binding assays. […] Binding was analyzed on a FACSCalibur (Becton Dickinson) and data analysis was performed using CellQuest (Becton Dickinson) and WinMDI (Scripps) softwares.

B1: H1RBD: first 215 residues of HTLV-1 SU fused to a C-terminal rabbit IgG Fc tag (rFc) (protein)
chain: DYSPSCCTLTIGVSSYHSKPCNPAQPVCSWTLDLLALSADQALQPPCPNLVSYSSYHATYSLYLFPHWIKKPNRNGGGYYSASYSDPCSLKCPYLGCQSWTCPYTGAVSSPYWKFQQDVNFTQEVSRLNINLHFSKCGFPFSLLVDAPGYDPIWFLNTEPSQLPPTAPPLLPHSNLDHILEPSIPWKSKLLTLVQVDVPRDCGCKPCICTVPEVSSVFIFPPKPKDVLTITLTPKVTCVVVDISKDDPEVQFSWFVDDVEVHTAQTQPREEQFNSTFRSVSELPIMHQDWLNGKEFKCRVNSAAFPAPIEKTISKTKGRPKAPQVYTIPPPKEQMAKDKVSLTCMITDFFPEDITVEWQWNGQPAENYKNTQPIMDTDGSYFVYSKLNVQKSNWEAGNTFTCSVLHEGLHNHHTEKSLSHSPGK
- decrease in 2-deoxyglucose uptake (293T cells [1]): approximately 4 fold
- Fructose uptake (293T cells [2]): not altered
- increase of binding after overnight culture in the absence of glucose [3]: 2 fold
- binding on murine erythrocytes (murine erythrocytes): no significant H1RBD binding could be detected
- binding upon overexpression of PiT2 (PiT2): remained at background levels
- binding upon GLUT-3 overexpression (GLUT-3; 293T cells, tagged GLUT-3): did not induce any increase
- H1RBD binding to cells overexpressing GLUT-3-DsRed2 (GLUT-3; fluorescent tagged GLUT-3, FACS analysis): no effect
